As a reminder, the Ki is the equilibrium dissociation constant of an inhibitor or competing ligand from its target. Lower therefore signals a stronger hold on the target.

For the assay, the target named is vitamin K-dependent gamma-glutamyl carboxylase. In words: inhibition constant of the propeptide toward the carboxylase; assay not described in the example.

For consensus propeptide sequence, the Ki was found to be 0.43 nM.

The values are drawn from patent US20030220247A1.
